± gives the uncertainty stated by the source.
experiment: amyloid nucleation score (Sup35N fusion, yeast selection) (log enrichment); library NNK3; higher = more nucleation; inactive = no reads after selection
In short: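 Sup35N was fused to peptides of 20 random codons and expressed in psi-negative yeast, which were induced with 100 μM copper sulfate for 24 hours and then grown on medium lacking adenine and uracil for 7 days at 30°C. Plasmid inserts from input and output were sequenced on Illumina. The nucleation score is the DiMSum log enrichment of output over input reads, centred on the mode score of non-aggregating sequences. Sequences with under 100 input reads were left out, and random libraries had three technical output replicates.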

Substance | amyloid nucleation score
FGCRSNDNQ | inactive
FGEMRFCFCAG | inactive
FGLNSCTSYKYQLSMSGFST | -0.491 ± 0.66
FGLTTRRRPRNVW | inactive
FGNFPSCE | inactive
FGRLTV | inactive
FGSCSEVFSYVAYLRGINDF | inactive
FGSLRCFGWLAWSICVNMYY | inactive
FGTPMVNVCMPS | inactive
FGVFGEIDIYCGW | inactive
FGVSSP | inactive
FGWAWPFFTKVHHTSTV | inactive
FGWVFLYDKLIPVKPFELYF | inactive
FGYNYLCTFSFIISMVHVRF | inactive
FHIRHEGMLFQWGHEALAVK | inactive
FHTPRILYTMNS | inactive
FIFHNHVFFDLSNMFRYYVY | 1.92 ± 0.087
FIIDVLTMASTLGCSVQN | inactive
FIIIVDYSFMPGSRVCMFSW | inactive
FIPGAMVRYQGRILLRSDAG | inactive
FISLPWYCQLVMVRDTSIIK | inactive
FISLVPLLSLYRPWVKK | 0.836 ± 0.18
FITFHENDAVELEG | inactive

Substance | amyloid nucleation score
FIVVVLLCFG | inactive
FIWAREFSVLRSHRRWPTEN | inactive
FKAMTFAYGYLTVGLSVVGV | inactive
FKASSGWLDLWD | inactive
FKAVQN | inactive
FKFVQDAHQNLGVIRSYRRS | inactive
FKRYY | inactive
FKSCLRTC | inactive
FKTCLGPQSTLVKGEVESHT | inactive
FKWDGPESQFGPSLMRINGA | 1.16 ± 0.19
FLAFSMEYCYVPHFWKVSLS | 0.311 ± 0.25
FLCLMTTKTKCNF | inactive
FLCMMTVVYQFVWMMMQGAV | inactive
FLDEFLWSCGIGFLRFIKDV | inactive
FLEWEGFRVCIENHMELLRF | inactive
FLFSWEKFVCLCCILY | 0.32 ± 0.49
FLGSLDFVSIKCQITHVRTS | inactive
FLHILGHVNLFTSLREDLSL | inactive
FLLDMGVNALSW | inactive
FLLKEWLK | -0.626 ± 0.9
FLLNLMIHLFYLVLKSRNQN | inactive
FLMHSKVTSCGVWSLYFADV | 1.44 ± 0.15
FLMWVSR | 1.08 ± 0.12

Substance | amyloid nucleation score
FLPDKGYTWKGTLWRWESNN | inactive
FLPRFGNHLTIRQKVRRTSG | inactive
FLSDYGSC | inactive
FLSLIKM | 0.39 ± 0.2
FLSSVSLGDAHSWTFSR | inactive
FMHSLTGNSGWGKGYRKSHV | 1.04 ± 0.19
FMPMFLRICCTMMLMWLFAC | inactive
FMSRMRKWFGCSNTHSSGTR | 1.77 ± 0.078
FNERDWCNSSGSSHVLWSSM | inactive
FNGSTCCVSSV | inactive
FNLFRNLIMGNCSALMMDQP | inactive
FNLSVINSRGQLECVLNPVK | inactive
FNPKSWKVTKLYFKMYNRLD | inactive
FNSILIVSLHLFSGFDSMR | 1.86 ± 0.093
FNSPSWTYDRLHFPAEQQAL | inactive
FNTFVPRKYH | inactive
FNVANIRSRFFHFTYSRKVS | inactive
FNVPS | 0.673 ± 0.42
FNVRRHHYYGMCPLLISRVR | inactive
FNVTGFSIIGKFIHDWFFLL | inactive
FNVTWKRLRIGRVGMKQKLS | 0.336 ± 0.77
FNWCWPISARAGELNLECWS | inactive
FNWFLRWFNPVCKDALWVEC | inactive

Substance | amyloid nucleation score
FNWMPMGEKSAWAVRVRSAC | inactive
FNWTKS | inactive
FPDLVVYSS | inactive
FPHGVHPYS | inactive
FPPCTLSKLGSGYHLSNESS | inactive
FPSIYLMSD | inactive
FPWSSRATRSGEVTV | inactive
FQYRLTVEGMSWWTGGW | inactive
FRFFFRKSQFYNRSLDNLVR | inactive
FRHPIYCLDLSFSYRMKARG | 0.052 ± 0.28
FRKTRIALFLPLTLDF | inactive
FRMASS | inactive
FRQYHMRRVRLHGRRDVYGQ | inactive
FRYAMSYVGGMGSSINALIW | inactive
FRYQDNDLLAHAA | -0.474 ± 1
FRYVWFCYCMNVERVENVRL | inactive
FSALWTRHKWNFPRMTTFAR | inactive
FSAPVLSTLTASLLELKRSG | inactive
FSDMCGRSFINSSWGGSAGV | inactive
FSEIVDYRGGIYGSYLNESM | inactive
FSFMLSDTGLSVFSSVYDEA | inactive
FSLSCPLSDPNVACTY | inactive
FSSLLTSDWRASCLGPYVNM | inactive

Substance | amyloid nucleation score
FSYVCFGYV | 0.337 ± 0.14
FTMSYYKYLSHGRMRRGT | inactive
FTNKNCFIGAVTRCEVRVWG | inactive
FTPYICVVQLLCYCMILRIY | inactive
FTRAAREGFFDLY | -0.04 ± 0.66
FTSEAPIKVQHWVYTSLPSV | inactive
FTSMFVLIVILSQMLSLQFR | inactive
FTVGILFGNLHLEFGVKVND | 1.6 ± 0.071
FTWLSMYYCLRANERK | 1.33 ± 0.15
FVDMIMKEDKFVLGQNFLRG | inactive
FVDWFLVGCRMVMLDRVLAS | inactive
FVFIQSHYQNMRFGKF | inactive
FVFRHYSRPDIFQDGKKSAN | 1.08 ± 0.15
FVGTCGMMSALFLHSSPSFV | inactive
FVHHYIWRVNL | 0.712 ± 0.36
FVHQRYRAQIIRLLPTSWGC | inactive
FVLMPSSFYNYWTTSEDFRS | inactive
FVLVN | inactive
FVLVWFLRLFDL | inactive
FVQDFSTFTAGWCL | inactive
FVRGCSRNSTRDCFYK | inactive
FVRSQSCS | inactive
FVSMRIYGGLRRWHHEYLVV | inactive

Substance | amyloid nucleation score
FVTKRCFDMLF | inactive
FVWMLRWMGRDD | 0.816 ± 0.24
FVYLSSKYIMSQMFKGKQMY | inactive
FWDTKFEFFQLHRVWIPLLV | inactive
FWFLYSSRAQRRRRHWI | inactive
FWGLSAMSLEVRGWRMGGEL | 0.196 ± 0.54
FWLHLVPYRFPIVGLCLRG | inactive
FWMCVSVSARWAPTSLGFGS | inactive
FWQSIYDGMGSVIFHHGFTQ | 0.434 ± 0.14
FWRSGNFYVNTVVLCASSRE | 2.03 ± 0.099
FWYSYQ | inactive
FYFKR | inactive
FYFMPNFV | inactive
FYFNYFIRMCNITCDI | 2.73 ± 0.05
FYHVTGLFT | inactive
FYIFNWGFFGIKWYLIWNEI | inactive
FYLCKRMNGSWNTLISV | inactive
FYRCLLNH | inactive
FYSECCILMGFFVGQNHSVW | 1.61 ± 0.094
FYSWDIHGCIVHSIYV | inactive
FYVNINFSELVSVDTISSFI | 0.208 ± 0.31
FYVSSTP | inactive
FYWSLNSYVCASCMILFALM | inactive

Substance | amyloid nucleation score
GACRCNCSSSDDPQNKRNML | inactive
GACTHGRSSCDKIYLRYSYG | inactive
GAGTGQWLDSFGVEIHHPRS | inactive
GAGWTQAIAFIQS | inactive
GAGYL | inactive
GAMNVESLSMFMRVYYVPYR | inactive
GASREFQTCSVGVYYVAIEK | inactive
GATVLLSNFSVCPHMARSSG | inactive
GAVFSEWTQVRSCDCDGIDK | inactive
GCAGRSWTGYRVHAASV | inactive
GCFSV | inactive
GCHLFHWFIFAYCYHYEGTN | 1.91 ± 0.09
GCIKGVICLTHC | inactive
GCISVVSL | inactive
GCKEL | inactive
GCLDQFGCGGTPVKVFATNV | -1.39 ± 2.5
GCNREGTYSRPVLTATNGG | -0.152 ± 0.93
GCRGVTVHSADCCDLSIYLC | 2.31 ± 0.082
GDFLNCAFLTKIFEHQNNFW | 1.85 ± 0.077
GDIRLGVAFRIFLSNCWGYF | inactive
GDMFGQPCRTCMFDLLKPVS | inactive
GDSFCFQLGVMCINHVRWY | 1.78 ± 0.09

From the supplement of paper PMC12042874
